Target: T1, TTHA0973 (PaaR, TetR family) (Thermus thermophilus HB8) (UniProt Q5SJN5)
T1 sequence: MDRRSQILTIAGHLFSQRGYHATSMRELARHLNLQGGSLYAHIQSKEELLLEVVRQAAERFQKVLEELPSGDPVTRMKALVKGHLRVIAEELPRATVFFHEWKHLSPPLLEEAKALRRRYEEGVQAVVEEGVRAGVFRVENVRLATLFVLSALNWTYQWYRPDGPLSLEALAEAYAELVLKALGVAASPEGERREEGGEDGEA
Experiment: BLI
Conditions: BLI with 11, 33, 100, 300 nM TTHA0973; EMSA 0-100 nM; buffer, salt, pH, temperature not given (cited protocol)

Question: Which Kd does the source give for “CTAGGAATTCGTGCAGAGGTGAATACCTAGCGTTACTTTTACCATCCCTCCAGAAGCTTGGACA (double strand) [ST2_0973_0647bp]” here?
Answer: The Kd was 99.5 nM.

Source: PMC6651687
